Assay results published in US6573076B1, “Gene, group of genes, and novel β-glucosidase” (Ajinomoto Co., Inc., priority 1997, dated 2003).

Assays:
[1] = Specific activity of purified β-glucosidase (G3ase), glucose release from cellotriose; type: biochemical, Acetobacter xylinum subsp. sucrofermentans BPR 2001; details: purified sample; 1 U = 1 μmol glucose from G3 at 30° C. for 2 hr
Procedure: Acetobacter xylinum subsp. sucrofermentans BPR 2001 strain was cultured in CSL-Fru medium using a jar fermenter (inner volume: 3 L, culture medium volume: 1.8 L) at 30° C. and pH5 for 68 hours. The resulting culture medium (about […] in total) was subjected to centrifugation to give its supernatant (3,600 ml). The resulting supernatant was subjected to salting-out with 60%-saturated ammonium sulfate, and the resulting precipitate was collected by centrifugation. The collected precipitate was solubilized into distilled water of 352 ml and dialyzed against distilled water (15 L). The resulting precipitate was collected and extracted three times with 20 mM sodium acetate buffer (pH5.5) containing 0.15 M NaCl. G3ase activity was found in the resulting extract. The extract was subjected to CM-Toyopearl 650M column (Tosoh Co. Ltd.; 3.2 cm in diameter, 13.3 cm in length) equilibrated with 20 mM sodium acetate buffer (pH5.5) containing 0.15 M NaCl to absorb the G3ase activity. […]
After reaction at 30° C. for 2 hr, a reaction solution (300 μl) of a glucose-measuring kit (Glucose CII test Wako: Wako Pure Chemical Industries, Ltd.) was added to the mixture, and reacted for 15 min at a room temperature, followed by the determination of an amount of glucose based on absorbance at 505 nm.

[2] = Isoelectric point of β-glucosidase (G3ase) by IEF-PAGE; type: physicochemical, Acetobacter xylinum subsp. sucrofermentans BPR 2001
Description: The molecular weight of β-glucosidase (G3ase) determined by SDS-PAGE was about 81,200 (FIG. 2). Its isoelectric point (pI) determined by IEF-PAGE was about 6.0 (FIG. 3).

[3] = type: physicochemical, Acetobacter xylinum subsp. sucrofermentans BPR 2001
Description: The pH stability of β-glucosidase (G3ase) was studied. […] An optimum pH was about 5.5. The thermal stability of β-glucosidase (G3ase) was also studied.

B1: β-glucosidase (G3ase): β-glucosidase purified from Acetobacter xylinum subsp. sucrofermentans BPR 2001, amino acid sequence SEQ ID NO:7 (protein, listed as Acetobacter xylinum)
chain: MRLSRKIFLLSAVACGMALAQAPAFARHAHDGGGDQADARARQVLASMSLEDKMSLLFSVDGGGFNGSVAPPGGLGSAAYLRAPQGSGLPDLQISDAGLGVRNPAHIRRNGEAVSLPSGQSTASTWDMDMARQAGVMIGREAWQSGFNILLGGGADLTRDPRGGRNFEYAGEDPLQTGRMVGSTIAGVQSQHVISTLKHYAMNDLETSRMTMSADIDPVAMRESDLLGFEIALETGHPGAVMCSYNRVNDLYACENPYLLNKTLKQDWHYPGFVMSDWGATHSSARAALAGLDQESAGDHTDARPYFRTLLAADVKAGRVPEARINDMAERVVRALFAAGLVDHPAQRGPLDVVTDTLVAQKDEEEGAVLLRNQGNILPLSPTARIAVIGGHADAGVISGGGSSQVDPIGGEAVKGPGKKEWPGDPVYFPSSPLKAMQAEAPGARITYDPGTSIASAVRAARAADVVVVYATQFTFEGMDAPSMHLDDNADALITAVAAANPRTVVVMETGDPVLMPWNSSVAGVLEAWFPGSGGGPAIARLLFGKVAPSGHLTMTFPQAESQLAHPDIAGVTADNVFEMQFHTDQELVYDEGSDVGYRWFDRNHFKPLYPFGYGLTYTTFSTDGLKVTERHGQVTATFNVHNTGTRAGVDVPQVYVGLPDGGARRLAGWQRISLAPGESRQVSVQLEPRLLAHFDGKHDRWSVPSGTFRVWLASCATDDSQQTTMHLHGRTMAP
modifications: n at positions 15741 and 15767 may be a, g, t, or c
- Specific activity [1]: 840 U/mg-portein
- isoelectric point (pI) [2]: about 6.0
- optimum pH [3]: about 5.5
- optimum temperature [3]: about 40 °C
- temperature at which inactivated ([3]; 30-minute treatment at pH 5.5): ≥ 50 °C
- temperature at which stable ([3]; 30-minute treatment at pH 5.5): ≤ 30 °C
- remaining activity (pH stability) ([3]; 3 h): ≥ 80%
